Patent US20240294626A1 (Novartis, published 2024)
One block for each binder: values may come before it.

Tests used:
Recombinant human IL-18 [1] = molecular target: T1, Recombinant human IL-18 (human, UniProt Q14116 37-193); experiment: SET, simultaneous target binding Assay B (both targets in serial dilutions in one mix)
T1 construct: also called huIL-18; hulL-18
Method: (§1) Assay B: The equilibration process (antibody/antigen mix) was performed with both targets in serial dilutions in one mix simultaneously (constant concentration of antibody 10 pM, highest antigen conc. see above). The same mix was then analyzed for its free antibody concentration on IL18 and IL-1β coated plates as described above.

Recombinant human IL-1β [2] = molecular target: T2, Recombinant human IL-1β (human, UniProt P01584 117-269); experiment: cell-based or functional assay
[3] = molecular target: T3, Recombinant marmoset IL-1β (marmoset, UniProt U3E018 117-268); experiment: cell-based or functional assay
[4] = molecular target: T3, Recombinant marmoset IL-1β; experiment: SET, simultaneous target binding Assay B (both targets in serial dilutions in one mix)
Method: as §1

Recombinant human IL-1β [5] = molecular target: T2, Recombinant human IL-1β; experiment: as above
Method: as §1

[6] = molecular target: T4, Recombinant marmoset IL-18 (marmoset, UniProt U3CWC9 37-190); experiment: cell-based or functional assay
T4 sequence: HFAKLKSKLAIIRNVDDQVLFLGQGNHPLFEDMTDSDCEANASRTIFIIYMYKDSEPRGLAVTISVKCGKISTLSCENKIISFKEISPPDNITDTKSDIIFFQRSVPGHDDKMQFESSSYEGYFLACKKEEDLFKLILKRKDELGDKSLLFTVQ

Recombinant human IL-18 [7] = molecular target: T1, Recombinant human IL-18; experiment: cell-based or functional assay

IC50, inhibition of IL-6 production in human PBMC stimulated with recombinant human IL-1β (60 pM) (Recombinant human IL-1β [2]): 0.29 nM
IC50, inhibition of IL-6 production in human dermal fibroblasts stimulated with recombinant human IL-1β (6 pM) (Recombinant human IL-1β [2]): 0.031 nM
IC50, inhibition of IL-6 production in human dermal fibroblasts stimulated with recombinant marmoset IL-1β (18 pM), Exp. C [3]: 0.114 nM
IC50, inhibition of IL-6 production in marmoset dermal fibroblasts stimulated with recombinant marmoset IL-1β (18 pM), Exp. A [3]: 0.095 nM
IC50, inhibition of IL-6 production in marmoset dermal fibroblasts stimulated with recombinant marmoset IL-1β (18 pM), Exp. B [3]: 0.138 nM
B1: mAb2 (antibody, human IgG1, kappa, V domains shown)
VH: QVQLVESGGGVVQPGRSLRLSCAASGFTFSVYGMNWVRQAPGKGLEWVAIIWYDGDNQYYADSVKGRFTISRDNSKNTLYLQMNGLRAEDTAVYYCARDLRTGPFDYWGQGTLVTVSS
VL: EIVLTQSPDFQSVTPKEKVTITCRASQSIGSSLHWYQQKPDQSPKLLIKYASQSFSGVPSRFSGSGSGTDFTLTINSLEAEDAAAYYCHQSSSLPFTFGPGTKVDIKR
notes: Human anti-IL-1β monoclonal antibody, kappa light chain; also called IL-1β antibody
binding result (Recombinant human IL-18 [1]): no binding (tested: highest antigen conc. 5 nM)

IC50, inhibition of IFNγ production in human PBMC stimulated with recombinant marmoset IL-18 (1 nM) and human IL-12 (10 ng/ml) [6]: 6.6 nM
IC50, inhibition of IFNγ production in marmoset whole blood stimulated with recombinant marmoset IL-18 (0.3 nM) and human IL-12 (10 ng/ml) [6]: 4.7 nM
IC50, inhibition of IFNγ production in marmoset whole blood stimulated with recombinant marmoset IL-18 (3 nM) and human IL-12 (10 ng/ml) [6]: 181 nM
IC50, inhibition of IFNγ production in KG-1 cells stimulated with recombinant human IL-18 (3 nM) and human IL-12 (1 ng/ml) (Recombinant human IL-18 [7]): 0.035 nM
IC50, inhibition of IFNγ production in human PBMC stimulated with recombinant human IL-18 (3 nM) and human IL-12 (1 ng/ml) (Recombinant human IL-18 [7]): 0.78 nM
B2: mAb1 (antibody, human IgG1, lambda, L234A L235A, V domains shown)
VH: EVQLVQSGAEVKKPGSSVKVSCKASGGTFKSYAISWVRQAPGQGLEWMGNIIPMTGQTYYAQKFQGRVTITADESTSTAYMELSSLRSEDTAVYYCARAAYHPLVFDNWGQGTLVTVSS
VL: DIVLTQPPSVSGAPGQRVTISCSGSSSNIGNHYVNWYQQLPGTAPKLLIYRNNHRPSGVPDRFSGSKSGTSASLAITGLQSEDEADYYCQSWDYSGFSTVFGGGTKLTVLG
notes: Human anti-IL-18 monoclonal antibody, lambda light chain; also called IL-18 antibody
binding result [4]: no binding (tested: highest antigen conc. 0.5 nM)
binding result (Recombinant human IL-1β [5]): no binding (tested: highest antigen conc. 0.5 nM)
